T1: soluble tissue factor (sTF), P13726
T1 chain: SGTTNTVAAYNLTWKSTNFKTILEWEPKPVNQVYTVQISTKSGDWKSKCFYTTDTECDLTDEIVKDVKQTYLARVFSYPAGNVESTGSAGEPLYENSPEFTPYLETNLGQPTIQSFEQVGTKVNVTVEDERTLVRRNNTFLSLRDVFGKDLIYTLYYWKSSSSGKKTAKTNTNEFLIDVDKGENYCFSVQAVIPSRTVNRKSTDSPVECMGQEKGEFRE


What was measured:
[1] = tested on: FIX/cFXI3/XTEN (pCW0737), FIX-/FXI/-XTEN_AE864
[2] = tested on: FIX/cFXI1/XTEN (pCW0735), FIX-KLTRAET-XTEN_AE864
[3] = tested on: FIX/cFXI2/XTEN (pCW0736), FIX-DFTRVVG-XTEN_AE864
[4] = target: T1, soluble tissue factor (sTF), P13726

Row | Molecule | Concentration by Activity (ng/ml), aPTT based factor assay [1] [ng/mL] | Fraction Active (activity / ELISA) [1] [%] | clotting activity (aPTT based factor assay), fold enhancement by the FXI cleavage site [1] | Concentration by Activity (ng/ml), aPTT based factor assay [2] [ng/mL] | Fraction Active (activity / ELISA) [2] [%] | clotting activity (aPTT based factor assay), fold enhancement by the FXI cleavage site [2] | Concentration by Activity (ng/ml), aPTT based factor assay [3] [ng/mL] | Fraction Active (activity / ELISA) [3] [%] | clotting activity (aPTT based factor assay), fold enhancement by the FXI cleavage site [3] | soluble tissue factor (sTF) induced clotting in FVII null plasma (Stago STA-Clot FVIIa activity assay kit) [4]
1 | FXI protease (FXIa) of the aPTT assay plasma | 11 | 40 | In all three cases the presence of a FXI cleavage site enhanced the clotting activity by greater than 30-fold | 7 | 30 | In all three cases the presence of a FXI cleavage site enhanced the clotting activity by greater than 30-fold | 9 | 34 | In all three cases the presence of a FXI cleavage site enhanced the clotting activity by greater than 30-fold | 
2 | FVIIa-AE288 (activated FVII-AE288, AC398) (protein) AVFVTQEEAHGVLHRRRRANAFLEELRPGSLERECKEEQCSFEEAREIFKDAERTKLFWISYSDGDQCASSPCQNGGSCKDQLQSYICFCLPAFEGRNCETHKDDQLICVNENGGCEQYCSDHTGTKRSCRCHEGYSLLADGVSCTPTVEYPCGKIPILEKRNASKPQGRIVGGKVCPKGECPWQVLLLVNGAQLCGGTLINTIWVVSAAHCFDKIKNWRNLIAVLGEHDLSEHDGDEQSRRVAQVIIPSTYVPGTTNHDIALLRLHQPVVLTDHVVPLCLPERTFSERTLAFVRFSLVSGWGQLLDRGATALELMVLNVPRLMTQDCLQQSRKVGDSPNITEYMFCAGYSDGSKDSCKGDSGGPHATHYRGTWYLTGIVSWGQGCATVGHFGVYTRVSQYIEWLQKLMRSEPRPGVLLRAPFPGSPGTSESATPESGPGSEPATSGSETPGTSESATPESGPGSEPATSGSETPGTSESATPESGPGTSTEPSEGSAPGSPAGSPTSTEEGTSESATPESGPGSEPATSGSETPGTSESATPESGPGSPAGSPTSTEEGSPAGSPTSTEEGTSTEPSEGSAPGTSESATPESGPGTSESATPESGPGTSESATPESGPGSEPATSGSETPGSEPATSGSETPGSPAGSPTSTEEGTSTEPSEGSAPGTSTEPSEGSAPGSEPATSGSETPGTSESATPESGPGTSTEPSEGSAPGSSS |  |  |  |  |  |  |  |  |  | an activity equivalent to 112 U/ml of FVIIa activity

— patent publication US20140328819
